The text below walks through data of patent US20140179547A1 (NOVIMMUNE S A, published 2014).

The target of assay [1] is T1, human interferon gamma (hIFNγ) (human, UniProt P01579 24-166, limits assumed).
T1 construct: also called INFγ
T1 sequence (looked up): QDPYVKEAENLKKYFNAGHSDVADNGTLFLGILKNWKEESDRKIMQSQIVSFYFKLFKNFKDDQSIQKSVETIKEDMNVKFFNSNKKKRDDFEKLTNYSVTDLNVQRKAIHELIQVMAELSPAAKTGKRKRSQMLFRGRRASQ
Kind of assay: SPR, Biacore 2000, IgG captured on anti-human IgG, antigen as analyte, 1:1 Langmuir fit. On the procedure: The affinity and binding kinetics of monospecific anti-INFγ IgGλ, the anti-IL6RC IgGκ and the bispecific IgGκλ antibodies were characterized on a Biacore 2000 instrument (Biacore AB, Uppsala, Sweden). 200RU of a goat anti-human polyclonal IgG (ahIgG; Biacore) were immobilized by EDC/NHS chemistry on a CM5 Biacore chip. This surface was used to capture monospecific or bispecific human IgG. The surface was regenerated after each cycle by injection of 10 mM glycine pH=1.5 at 30 μL/min, for 30 s followed by 1 min of stabilization time in HBS-EP buffer. […] Similar affinity values were obtained for the monospecific antibodies and the bispecific IgGκλ antibodies.

Assay [2] deals with T2, hIL6 Receptor Complex (IL-6/IL-6R receptor complex) (human, UniProt P08887 20-358; P05231 30-212, limits assumed).
T2 construct: also called IL6RC; hIL6RC
The experiment in a line: SPR (Biacore), INFγ immobilised, IgGλ injected, then IL6RC injected. The procedure:
(§1) FIGS. 12A and 12B are a series of illustrations and graphs depicting SPR analysis of IgGκλ bispecific antibodies. In FIG. 12A, INFγ was immobilized at the surface of the Biacore chip and anti-IL6RC monospecific antibody ([…]), anti-INFγ monospecific antibody (IgGλ) and, anti-IL6RC/anti-INFγ bispecific antibody (IgGκλ) were injected on the surface followed by injection of IL6RC. In FIG. 12B, the anti-IL6RC/anti-INFγ bispecific antibody (IgGκλ) was immobilized on the chip surface and anti human-Kappa and anti-human Lambda antibodies were injected at the same concentration. The experiment was repeated inverting the order of antibody injection with identical results.
(§2) The capacity of the bispecific IgGκλ to interact with both targets simultaneously was tested by SPR. Biotinylated INFγ was immobilized on streptavidin coating CM5 Biacore chip. The monospecific and the bispecific antibodies were injected on this surface followed by injection of IL6RC. […] SPR was also used to assess the relative amounts of Kappa and Lambda light chains in the purified bispecific antibody. IgGκλ was directly immobilized via amine coupling on the surface of a CM5 Biacore chip and an anti-human CKappa antibody was injected followed by an anti-human CLambda antibody at the same concentration.
(In general: SPR reads the build-up and loss of mass on a sensor chip optically.)

Assay [3] has as its target T1, human interferon gamma (hIFNγ). Kind of assay: SPR (Biacore), INFγ immobilised, IgG injected. On the procedure:
as §1, §2

B1: monospecific anti-INFγ IgGλ antibody (antibody, V domains shown)
VH: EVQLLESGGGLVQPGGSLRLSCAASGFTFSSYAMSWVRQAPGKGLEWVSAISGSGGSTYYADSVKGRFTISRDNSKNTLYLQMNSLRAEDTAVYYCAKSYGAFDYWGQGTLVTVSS
VL: NFMLTQPHSVSESPGKTVTISCTRSSGSIASNYVQWYQQRPGSSPTTVIYEDNQRPSGVPDRFSGSIDSSSNSASLTISGLKTEDEADYYCQSQSWDGNHIVFGGGTKLTVLG
notes: also called IgGλλ; mono λ
In assay [1], B1 showed a dissociation constant Kd of 0.196 nM, a koff of 0.000119 s⁻¹ and an on-rate constant (kon) of 608000 M⁻¹ s⁻¹. Besides, the binding result in assay [2] is listed as “no binding”.

B2: monospecific anti-IL6RC IgGκ antibody (antibody, V domains shown)
VH: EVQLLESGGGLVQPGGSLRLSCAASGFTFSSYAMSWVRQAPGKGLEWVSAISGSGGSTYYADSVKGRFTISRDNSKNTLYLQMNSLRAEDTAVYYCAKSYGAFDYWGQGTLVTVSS
VL: EIVLTQSPATLSLSPGERATLSCRASQSVSSYLAWYQQKPGQAPRLLIYDASNRATGIPARFSGSGSGTDFTLTISSLEPEDFAVYYCQQWLPTTPATFGQGTKVEIKR
notes: also called IgGκκ; mono κ
As for B2, in assay [3], the binding result is “no binding”.

B3: anti-IL6RC/anti-INFγ bispecific IgGκλ antibody (bispecific antibody)
heavy: not shown
light 1: not shown
light 2: NFMLTQPHSVSESPGKTVTISCTRSSGSIASNYVQWYQQRPGSSPTTVIYEDNQRPSGVPDRFSGSIDSSSNSASLTISGLKTEDEADYYCQSQSWDGNHIVFGGGTKLTVLGQPKAAPSVTLFPPSSEELQANKATLVCLISDFYPGAVTVAWKADSSPVKAGVETTTPSKQSNNKYAASSYLSLTPEQWKSHRSYSCQVTHEGSTVEKTVAPTECS
notes: also called κλ-body; κλ body
Turning to B3, in assay [1], the dissociation constant (Kd) was found to be 0.184 nM, the off-rate constant (koff) stood at 0.000169 s⁻¹ and the on-rate (kon) was found to be 919000 M⁻¹ s⁻¹.

The term Kd denotes the free concentration of one partner at which half of the binding sites on the other are occupied at equilibrium, for simple one-to-one binding. Higher therefore signals a looser complex. One may read the koff as a measure of how fast the partners let go of each other. The low end stands for slow dissociation, the high end for fast dissociation. As a reminder, the kon is a measure of how fast the partners come together. Lower therefore signals slow association.
